For the data set, the target named is LexA repressor (UniProt P0A7C2 P0A7C2:1-202). Nature of the data set: operator region protected from integration by wild type IN; 5 mM MgCl2, 37 C. The settings on record: chain copies: 2 (stated). The protocol: Assay for integration into pBR322 targets containing lexA operators. Integration of the model viral DNA duplex into a heterologous target was measured using a PCR-based assay similar to that described by Pryciak et al., EMBO J. 11: 291–303 (1992). The target DNAs, pBR322 derivatives, contain the lexA operator region. To measure integration into a specific region, a "target" PCR primer was selected, which was ca. 250 bp from the lexA operator region. The "viral" primer was identical to the 16nt DNA strand to be joined to the target DNA. The length of the PCR product corresponds to the distance from the target primer site to the integration site. Integration assays contained approximately 0.2 pmoles of PstI linerarized plasmid target DNA, 35 pmoles of IN or IN-lexA fusion protein and 0.1 pmol of viral DNA ends (model substrate). The reaction mixture contained 20 mM Tris-HCl and 5 mM MgCl_2. The viral DNA substrate was a 18 mer/16 mer duplex with a recessed end. This corresponds to a processed viral DNA end, as described previously (Katzman et al., 1989, supra). […] Recovery of target DNA was monitored by agarose gel electrophoresis. […] Products were analyzed on 7% acrylamide-urea sequencing gels. Fragment sizes were determined using a ØX174HaeIII digest and a 10 bp ladder (Bethesda Research Labs).
LexA repressor, sequence (P0A7C2 whole entry, one chain of several): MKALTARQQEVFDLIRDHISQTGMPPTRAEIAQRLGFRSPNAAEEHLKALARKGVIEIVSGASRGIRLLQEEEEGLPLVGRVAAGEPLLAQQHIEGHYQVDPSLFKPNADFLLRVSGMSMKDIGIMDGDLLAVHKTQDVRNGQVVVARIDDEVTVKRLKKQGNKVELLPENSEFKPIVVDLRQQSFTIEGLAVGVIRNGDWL

B1: tandem lexA operator segment (in pBR711-2) (dsDNA)
DNA 1: GGGGTCGACATTACTGTATATATATACAGCATAACTGTATATATATACAGTATAGGATCCGGG
DNA 2: CCCGGATCCTATACTGTATATATATACAGTTATGCTGTATATATATACAGTAATGTCGACCCC
Turning to B1, the binding result is reported as “binds”.

These data come from patent US6150511 (Fox Chase Cancer Center).
